B1: Trimethylamine-N-oxide reductase 1 (Escherichia coli (strain K12)), P33225 (parent)
chain: MNNNDLFQASRRRFLAQLGGLTVAGMLGPSLLTPRRATAAQAATDAVISKEGILTGSHWGAIRATVKDGRFVAAKPFELDKYPSKMIAGLPDHVHNAARIRYPMVRVDWLRKRHLSDTSQRGDNRFVRVSWDEALDMFYEELERVQKTHGPSALLTASGWQSTGMFHNASGMLAKAIALHGNSVGTGGDYSTGAAQVILPRVVGSMEVYEQQTSWPLVLQNSKTIVLWGSDLLKNQQANWWCPDHDVYEYYAQLKAKVAAGEIEVISIDPVVTSTHEYLGREHVKHIAVNPQTDVPLQLALAHTLYSENLYDKNFLANYCVGFEQFLPYLLGEKDGQPKDAAWAEKLTGIDAETIRGLARQMAANRTQIIAGWCVQRMQHGEQWAWMIVVLAAMLGQIGLPGGGFGFGWHYNGAGTPGRKGVILSGFSGSTSIPPVHDNSDYKGYSSTIPIARFIDAILEPGKVINWNGKSVKLPPLKMCIFAGTNPFHRHQQINRIIEGLRKLETVIAIDNQWTSTCRFADIVLPATTQFERNDLDQYGNHSNRGIIAMKQVVPPQFEARNDFDIFRELCRRFNREEAFTEGLDEMGWLKRIWQEGVQQGKGRGVHLPAFDDFWNNKEYVEFDHPQMFVRHQAFREDPDLEPLGTPSGLIEIYSKTIADMNYDDCQGHPMWFEKIERSHGGPGSQKYPLHLQSVHPDFRLHSQLCESETLRQQYTVAGKEPVFINPQDASARGIRNGDVVRVFNARGQVLAGAVVSDRYAPGVARIHEGAWYDPDKGGEPGALCKYGNPNVLTIDIGTSQLAQATSAHTTLVEIEKYNGTVEQVTAFNGPVEMVAQCEYVPASQVKS
partner: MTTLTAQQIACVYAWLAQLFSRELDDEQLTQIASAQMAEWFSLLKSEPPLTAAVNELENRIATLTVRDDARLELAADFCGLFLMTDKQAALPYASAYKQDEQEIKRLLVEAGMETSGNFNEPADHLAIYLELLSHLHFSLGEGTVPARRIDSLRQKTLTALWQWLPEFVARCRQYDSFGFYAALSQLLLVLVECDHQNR
B2: Chaperone protein TorD (Escherichia coli (strain K12)), P36662 (parent)
chain: B1 partner

Variants of: B1
Conditions: with tord_ecoli torD

Row | effect of a mutation on the interaction | Variant
1 | decreasing interaction | G19Q

Variants of: B1
Conditions: with tord_ecoli torD
Remark: another data set of the same source

Row | effect of a mutation on the interaction | Variant
2 | decreasing interaction | V23Q

Variants of: B1
Conditions: with tord_ecoli torD
Remark: another data set of the same source

Row | effect of a mutation on the interaction | Variant
3 | increasing interaction | T22Q

Variants of: B1
Conditions: with tord_ecoli torD
Remark: another data set of the same source

Row | effect of a mutation on the interaction | Variant
4 | decreasing interaction | G28Q

Variants of: B1
Conditions: with tord_ecoli torD
Remark: another data set of the same source

Row | effect of a mutation on the interaction | Variant
5 | disrupting interaction | L27Q

Variants of: B1
Conditions: with tord_ecoli torD
Remark: another data set of the same source

Row | effect of a mutation on the interaction | Variant
6 | disrupting interaction | L32Q

Variants of: B1
Conditions: with tord_ecoli torD
Remark: another data set of the same source

Row | effect of a mutation on the interaction | Variant
7 | disrupting interaction | L31Q

Variants of: B1
Conditions: with tord_ecoli torD
Remark: another data set of the same source

Row | effect of a mutation on the interaction | Variant
8 | decreasing interaction | L31Q

Variants of: B2
Conditions: with tora_ecoli torA

Row | effect of a mutation on the interaction | Variant
9 | increasing interaction | MTTLTAQQIACVYAWLAQLFSRELDDEQLTQIASAQMAEWFSLLKSEPPLTAAVNELENRIATLTVRDDARLELAADFCGLFLMTDKQAALPYASAYKQDEQEIKRLLVEAGMETSGNFNEPADHLAIYLELLSHLHFSLGEGTVPARRIDSLRQKTLTALWQWLPEFVARCRQYDSFGFYAALSQLLQVLVECDHQNR [L189Q]
10 | increasing interaction | MTTLTALQIACVYAWLAQLFSRELDDEQLTQIASAQMAEWFSLLKSEPPLTAAVNELENRIATLTVRDDARLELAADFCGLFLMTDKQAALPYASAYKQDEQEIKRLLVEAGMETSGNFNEPADHLAIYLELLSHLHFSLGEGTVPARRIDSLRQKTLTALWQWLPEFVARCRQYDSFGFYAALSQLLLVLVECDHQNR [Q7L]
11 | increasing interaction | MTTLTAQQIACVYAWLAQLFSRELDDEQLTQIASAQMAEWFSLLKSEPPLTAAVNELENRIATLTVRDDARLELAADFCGLFLMTDKQAALPYASAYKQDEQEIKRLLVEAGMETSGNFNEPADHLAIYLELLSHLHFSLGEGTVPARRIDSLRQKTLTALWQWLPEFVARCRQYDSFGLYAALSQLLLVLVECDHQNR [F180L]

Variants of: B2
Conditions: with tora_ecoli torA
Remark: another data set of the same source

Row | effect of a mutation on the interaction | Variant
12 | decreasing interaction | MTTLTAQQIACVYAWLAQLFSRELDDEQLTQIASAQMAEWFSLLKSEPPLTAAVNELENRIATLTVRDDARLELAADFCGLFLMTDKQAALPYASAYKQDEQEIKRLLVEAGMETSGNFNEPADHLAIYLELLSHLHFSLGEGTVPARRIDSLRQKTLTALWQWLPEFVARCRQYDSFGFYAALSQLLQVLVECDHQNR [L189Q]

Variants of: B2
Conditions: with tora_ecoli torA
Remark: another data set of the same source

Row | effect of a mutation on the interaction | Variant
13 | increasing interaction | MTTLTAQQIACVYAWLAQLFSRELDDEQLTQIASAQMAEWFSLLKSEPPLTAAVNELENRIATLTVRDDARLELAADFCGLFLMTDKQAALPYASAYKQDEQEIKRLLVEAGMETSGNFNEPADHLAIYLELLSHLHFSLGEGTVPARRIDSLRQKTLTALWQWLPEFVARCRQYDSFGFYAALSLLLLVLVECDHQNR [Q186L]

Variants of: B2
Conditions: with tora_ecoli torA
Remark: another data set of the same source

Row | effect of a mutation on the interaction | Variant
14 | decreasing interaction | MTTLTAQQIACVYAWLAQLFSRELDDEQLTQIASAQMAEWFSLLKSEPPLTAAVNELENRIATLTVRDDARLELAADFCGLFLMTDKQAALPYASAYKQDEQEIKRLLVEAGMETSGNFNEPADHLAIYLELLSHLHFSLGEGTVPARRIDSLRQKTLTALWQWLPEFVARCRQYDSFGLYAALSQLLLVLVECDHQNR [F180L]

— IntAct's records for PubMed 19013157
